Source: publication PMC2613655 (Journal of molecular biology, 2008)

B1: Ydj1 (natural protein, yeast, UniProt P25491 1-409, looked up)
chain: MVKETKFYDILGVPVTATDVEIKKAYRKCALKYHPDKNPSEEAAEKFKEASAAYEILSDPEKRDIYDQFGEDGLSGAGGAGGFPGGGFGFGDDIFSQFFGAGGAQRPRGPQRGKDIKHEISASLEELYKGRTAKLALNKQILCKECEGRGGKKGAVKKCTSCNGQGIKFVTRQMGPMIQRFQTECDVCHGTGDIIDPKDRCKSCNGKKVENERKILEVHVEPGMKDGQRIVFKGEADQAPDVIPGDVVFIVSERPHKSFKRDGDDLVYEAEIDLLTAIAGGEFALEHVSGDWLKVGIVPGEVIAPGMRKVIEGKGMPIPKYGGYGNLIIKFTIKFPENHFTSEENLKKLEEILPPRIVPAIPKKATVDECVLADFDPAKYNRTRASRGGANYDSDEEEQGGEGVQCASQ
B2: YSY (other, yeast, UniProt P25491 1-105, looked up)
chain: MVKETKFYDILGVPVTATDVEIKKAYRKCALKYHPDKNPSEEAAEKFKEASAAYEILSDPEKRDIYDQFGEDGLSGAGGAGGFPGGGFGFGDDIFSQFFGAGGAQNEDAFNIFSQFFGGSSPFGGADDSGFSFSSYPSGGGAGMGGMPGGMGGMHGGMGGMPGGFRSASSSPTYPEEETVQVNLPVSLEDLFVGKKKSFKIGRKGPHGASEKTQIDIQLKPGWKAGTKITYKNQGDYNPQTGRRKTLQFVIQEKSHKSFKRDGDDLVYEAEIDLLTAIAGGEFALEHVSGDWLKVGIVPGEVIAPGMRKVIEGKGMPIPKYGGYGNLIIKFTIKFPENHFTSEENLKKLEEILPPRIVPAIPKKATVDECVLADFDPAKYNRTRASRGGANYDSDEEEQGGEGVQCASQ
B3: SYS (other, yeast, UniProt P25294 1-121, looked up)
chain: MVKETKLYDLLGVSPSANEQELKKGYRKAALKYHPDKPTGDTEKFKEISEAFEILNDPQKREIYDQYGLEAARSGGPSFGPGGPGGAGGAGGFPGGAGGFSGGHAFSNEDAFNIFSQFFGGAGGAQRPRGPQRGKDIKHEISASLEELYKGRTAKLALNKQILCKECEGRGGKKGAVKKCTSCNGQGIKFVTRQMGPMIQRFQTECDVCHGTGDIIDPKDRCKSCNGKKVENERKILEVHVEPGMKDGQRIVFKGEADQAPDVIPGDVVFIVSERPHPNFKRDGDDLIYTLPLSFKESLLGFSKTIQTIDGRTLPLSRVQPVQPSQTSTYPGQGMPTPKNPSQRGNLIVKYKVDYPISLNDAQKRAIDENF
B4: Sis1 (natural protein, yeast, UniProt P25294 1-352, looked up)
chain: MVKETKLYDLLGVSPSANEQELKKGYRKAALKYHPDKPTGDTEKFKEISEAFEILNDPQKREIYDQYGLEAARSGGPSFGPGGPGGAGGAGGFPGGAGGFSGGHAFSNEDAFNIFSQFFGGSSPFGGADDSGFSFSSYPSGGGAGMGGMPGGMGGMHGGMGGMPGGFRSASSSPTYPEEETVQVNLPVSLEDLFVGKKKSFKIGRKGPHGASEKTQIDIQLKPGWKAGTKITYKNQGDYNPQTGRRKTLQFVIQEKSHPNFKRDGDDLIYTLPLSFKESLLGFSKTIQTIDGRTLPLSRVQPVQPSQTSTYPGQGMPTPKNPSQRGNLIVKYKVDYPISLNDAQKRAIDENF

Target: the molecule itself
Assay: SAXS

| Protein | stoichiometry N |
| --- | --- |
| B1 | 2 |
| B2 | 2 |
| B3 | 2 |
| B4 | 2 |
